In paper doi:10.1101/2021.09.20.461090:

Target: extended E34 TSP (E34 phage tailspike protein with the N-terminal 43 amino acid fusion peptide) (E34 phage)
Assay: SDS-PAGE of unheated against unfolded samples

extended E34 TSP (E34 phage tailspike protein with the N-terminal 43 amino acid fusion peptide) (natural protein)
stoichiometry N: 3
